One molecule from US20240301041A1 (Regeneron, published 2024) can be followed below.

Broadly, the Kd is the constant that tells how readily two partners part at equilibrium. A low value points to higher affinity. The koff is the rate constant with which the complex falls apart. A low value points to slow dissociation. The kon is the second-order rate constant of association. A low value points to slow association. What is called t½ is the time needed for the level to fall by half in the phase considered.

The target in assay [1] is T1, IsdA.6xHis (Staphylococcus aureus, UniProt A6QG31 47-316).
T1 construct: also called IsdA-6× His; IsdA.6×His
T1 sequence: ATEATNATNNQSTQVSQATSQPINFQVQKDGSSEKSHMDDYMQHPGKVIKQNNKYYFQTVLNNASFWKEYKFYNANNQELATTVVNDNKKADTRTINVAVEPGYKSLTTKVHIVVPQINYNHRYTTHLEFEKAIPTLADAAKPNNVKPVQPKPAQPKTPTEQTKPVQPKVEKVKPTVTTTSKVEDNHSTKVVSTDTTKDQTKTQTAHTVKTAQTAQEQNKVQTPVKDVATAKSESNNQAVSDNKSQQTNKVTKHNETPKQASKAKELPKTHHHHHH
In words: SPR (Biacore), mAb captured by anti-human Fc, IsdA.6xHis injected, 25 C.
Procedure: (§1) The equilibrium dissociation constants (KD) to Protein A and IsdA.6×His reagents binding to purified anti-IsdA*/* and anti-Protein A*/* monoclonal antibodies were determined using a real-time surface plasmon resonance based Biacore T200 or Biacore 4000 biosensor. All binding studies were performed in 10 mM HEPES, 150 mM NaCl, 3.4 mM EDTA and 0.05% v/v Tween-20, pH 7.4 (HBS-EP) running buffer at 25° C. and 37° C. […] Proteins were injected over the captured anti-IsdA*/* and anti-Protein A*/* monoclonal antibody surface for 3-3.5 minutes at a flow rate of 30-50 μL/minute, while the dissociation of monoclonal antibody bound IsdA.6×His and Protein A reagent was monitored for 5-10 minutes in HBS-EP running buffer. The association rate (ka) and dissociation rate (kd) were determined by fitting the real-time binding sensorgrams to a 1:1 binding model with mass transport limitation using Scrubber 2.0c curve-fitting software. Binding dissociation equilibrium constant (KD) and dissociative half-life (t½) were calculated from the kinetic rates as:

The target in assay [2] is T1, IsdA.6xHis. In words: SPR (Biacore), mAb captured by anti-human Fc, IsdA.6xHis injected, 37 C. Background: In SPR one partner is held on a chip, and binding of the other changes the refractive index at the surface.
Procedure: as §1

B1: H1xH20334P2*/* (anti-IsdA) (antibody, V domains shown)
VH: EVQLVESGGGLVQPGRSLRVSCAASGFTFDDYAMHWVRQIPGKGLEWVSGIRWNSDTIGYADSVKGRFTISRDNAKNFLYLQMNSLRTEDTALYYCVKDMRVRGIIMYGMDVWGQGTTVTVSS
VL: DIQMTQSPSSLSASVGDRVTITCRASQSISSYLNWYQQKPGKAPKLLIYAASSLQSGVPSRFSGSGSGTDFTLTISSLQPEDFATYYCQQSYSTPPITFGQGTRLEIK
notes: also called anti-IsdA*/* monoclonal antibody
B1: in the assay with IsdA.6xHis [1], the Kd came to 1.28 nM, the koff was found to be 0.000446 s⁻¹, the kon is 348000 M⁻¹ s⁻¹ and the t½ amounted to 26 min. Besides, in the assay with IsdA.6xHis [2], the Kd amounted to 3.49 nM, the koff worked out at 0.00167 s⁻¹, the kon came to 479000 M⁻¹ s⁻¹ and the t½ stood at 7 min.
